Test results: article PMC10113255, “PHF14 enhances DNA methylation of SMAD7 gene to promote TGF-β-driven lung adenocarcinoma metastasis”

T1: PHF14 ePHD domain WT (Homo sapiens, UniProt O94880 382-499)
T1 sequence: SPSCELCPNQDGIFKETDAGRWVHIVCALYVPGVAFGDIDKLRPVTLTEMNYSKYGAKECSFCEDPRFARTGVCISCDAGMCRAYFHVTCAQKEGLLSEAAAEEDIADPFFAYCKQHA

B1: AT-rich probe (dsDNA)
DNA 1: CATTAGATGATAGCATTAGATGATAG
DNA 2: CTATCATCTAATGCTATCATCTAATG
B2: CG-rich probe, unmethylated (dsDNA)
DNA 1: ACGGCTCGTCGCTACGGCTCGTCGCT
DNA 2: AGCGACGAGCCGTAGCGACGAGCCGT

Target: T1, PHF14 ePHD domain WT
Assay: SPR; protein immobilized on CM5; SPR: HBS-P (10 mM HEPES pH 7.4, 150 mM NaCl, 0.05% P20), 25 °C, 1:1 Langmuir fit; EMSA: LightShift kit protocol, 0.5x TBE native PAGE, buffer not stated
Conditions: protein: recombinant; tags: His (EMSA, purification method); FLAG (SPR); label: biotin (EMSA); blunt

| Binder | Kd |
| --- | --- |
| B1 | 230 nM |
| B2 | 36 nM |
